Laboratory results published in publication PMC2444022.

How the values were obtained:
[1] = system: LysN (anticodon-binding domain of LysRS) (Escherichia coli); settings: gel-retardation buffer, pH and temperature not in material; cited from earlier work
[2] = system: LysRS wild type (lysyl-tRNA synthetase) (Escherichia coli); assay: EMSA; settings: reference; gel-retardation buffer, pH and temperature not in material
[3] = system: LysRS(K130A) (Escherichia coli); assay: EMSA; settings: gel-retardation buffer, pH and temperature not in material
[4] = system: LysRS(T133A) (Escherichia coli); assay: EMSA; settings: gel-retardation buffer, pH and temperature not in material

Substance | Kd [1] [µM] | binding signal (fraction of WT bound) [2] | binding signal (fraction of WT bound) [3] | binding signal (fraction of WT bound) [4]
tRNALys (unlabeled competitor) | 100 |  |  | 
tRNALys |  | 1 | 0.35 | 1.17
